“And” between values parts separate entries of the source, which are not always exact repeats. Equal entries are not always repeated. Where two headings read alike, the source gives them in different places.
Experiments:
[1] = molecular target: T1, HIS:SUMO:HD2 fusion protein (tick; entry name EVA4_RHISA, the …); assay: BLI
[2] = molecular target: T1, HIS:SUMO:HD2 fusion protein; assay: BLI; remark: listed apart in the source

B1: CCL8 (ligand)
chain: QPDSVSIPITCCFNVINRKIPIQRLESYTRITNIQCPKEAVIFKTKRGKEVCADPKERWVRDSMKHLDQIFQNLKP
**Q.** B1 was tested. Which Kd [1] did it give?
**A.** 142 nM and 84.9 nM

**Q.** And the Kd [2]?
**A.** 142 nM

Reference: article PMC10505172 (2023)
